Measurements published in patent publication US20220177604A1 (ARGENX, published 2022).

How the values were obtained:
[1] = target: T1, recombinant Motavizumab human IgE (rMota-hIgE) (human, UniProt P01854 1-428); experiment: hIgE binding ELISA
T1 construct: also called Recombinant IgE (argenx)
Description: The ratio of OD450 measured at pH 7.4 versus OD450 measured at pH 6 was calculated for each of the CL-2C antibodies.

[2] = target: T1, recombinant Motavizumab human IgE …; experiment: hIgE binding ELISA; remark: listed apart in the source
Description: (§1) Briefly a Maxisorp plate was coated with recombinant human respiratory syncytial virus protein F (RSV-F) (0.5 μg/mL), then blocked with PBS with 3% BSA and 0.05% Tween. […] After several washing steps at pH 7.4 or pH 5.5, detection of the bound mAbs was carried out with an anti-human Fc-HRP antibody.

[3] = target: T2, human immunoglobulin E (hIgE) (human, UniProt P01854-1 1-428); experiment: SPR (Biacore) on hIgE
T2 construct: also called human IgE; Native IgE (Abcam)
Description: The ratio of KD measured at pH 5.5 versus KD measured at pH 7.4 was calculated for each of the CL-2C antibodies.

[4] = target: T1, recombinant Motavizumab human IgE …; experiment: hIgE binding ELISA, pH 5.5
Description: as §1

[5] = target: T1, recombinant Motavizumab human IgE …; experiment: hIgE binding ELISA, pH 7.4
Description: as §1

[6] = target: T2, human immunoglobulin E (hIgE); experiment: competition ELISA, hIgE to hFcεRIα

T1 sequence (P01854 other isoform, or with tags, fused parts or gaps limits assumed, form in doubt): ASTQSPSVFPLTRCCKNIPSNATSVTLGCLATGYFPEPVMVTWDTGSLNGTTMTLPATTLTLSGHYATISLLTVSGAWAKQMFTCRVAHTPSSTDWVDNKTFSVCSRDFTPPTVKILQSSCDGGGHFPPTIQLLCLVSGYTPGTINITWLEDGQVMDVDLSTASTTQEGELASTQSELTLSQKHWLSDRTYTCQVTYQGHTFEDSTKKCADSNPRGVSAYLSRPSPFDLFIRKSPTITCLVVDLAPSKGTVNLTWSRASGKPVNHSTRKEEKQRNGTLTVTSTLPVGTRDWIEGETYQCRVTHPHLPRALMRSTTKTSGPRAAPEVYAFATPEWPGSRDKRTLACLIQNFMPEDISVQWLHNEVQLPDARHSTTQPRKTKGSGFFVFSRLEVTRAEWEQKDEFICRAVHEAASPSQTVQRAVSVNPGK
T2 sequence (P01854 whole entry): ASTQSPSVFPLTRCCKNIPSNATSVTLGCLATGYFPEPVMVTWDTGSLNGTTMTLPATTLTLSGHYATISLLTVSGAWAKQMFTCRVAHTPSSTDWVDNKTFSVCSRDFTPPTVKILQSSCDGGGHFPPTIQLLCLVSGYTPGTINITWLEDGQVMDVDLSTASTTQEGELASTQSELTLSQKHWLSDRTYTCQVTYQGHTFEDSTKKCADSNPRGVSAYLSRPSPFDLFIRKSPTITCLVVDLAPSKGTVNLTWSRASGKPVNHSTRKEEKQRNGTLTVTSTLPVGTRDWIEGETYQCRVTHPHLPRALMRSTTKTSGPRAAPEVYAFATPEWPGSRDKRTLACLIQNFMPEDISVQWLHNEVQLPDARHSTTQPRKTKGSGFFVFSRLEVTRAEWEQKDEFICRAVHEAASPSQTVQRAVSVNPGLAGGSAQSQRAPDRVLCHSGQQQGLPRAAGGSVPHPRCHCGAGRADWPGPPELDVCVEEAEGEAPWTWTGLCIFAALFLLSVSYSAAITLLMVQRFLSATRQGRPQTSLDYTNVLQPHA

B1: CL-2C mAb 37 (antibody, V domains shown)
VH: QVQLVQSGAEVMKPGSSVKVSCKASGYTFSWYHLEWVRQAPGHGLEWMGEIDPGTFTTNYNEKFKARVTFTADTSTSTAYMELSSLRSEDTAVYYCARFSHFSGSNHDYFDYWGQGTLVTVSS
VL: EIVMTQSPATLSVSPGERATLSCRASQSIGTNIHWYQQKPGQAPRLLIYYASESISGIPARFSGSGSGTEFTLTISSLQSEDFAVYYCQQSWSWPTTFGGGTKVEIK
notes: also called VKWT + VH33H100CH
Ratio OD450 pH 7.4/pH 6 [1]: 10.3 | Ratio EC50 pH 5.5/7.4 [2]: 2.5 | Ratio EC50 pH 7.4/5.5 [2]: 0.4 | KD Ratio pH 5.5/pH 7.4 [3]: 11.1 | EC50 [4]: 0.0373 µg/mL | EC50 [5]: 0.0149 µg/mL | IC50 [6]: 0.483 nM
